Measurements published in PMC11704961.

Assays:
Experiment in all cases: EMSA
IPMK = IPMK (human, UniProt Q8NFU5 1-416)
[1] = molecular target: T1, SRF (His-SRF);Elk1 (GST-His-Elk1) (human;human, UniProt P11831;P19419 1-508;1-428, |)
T1 sequence 1: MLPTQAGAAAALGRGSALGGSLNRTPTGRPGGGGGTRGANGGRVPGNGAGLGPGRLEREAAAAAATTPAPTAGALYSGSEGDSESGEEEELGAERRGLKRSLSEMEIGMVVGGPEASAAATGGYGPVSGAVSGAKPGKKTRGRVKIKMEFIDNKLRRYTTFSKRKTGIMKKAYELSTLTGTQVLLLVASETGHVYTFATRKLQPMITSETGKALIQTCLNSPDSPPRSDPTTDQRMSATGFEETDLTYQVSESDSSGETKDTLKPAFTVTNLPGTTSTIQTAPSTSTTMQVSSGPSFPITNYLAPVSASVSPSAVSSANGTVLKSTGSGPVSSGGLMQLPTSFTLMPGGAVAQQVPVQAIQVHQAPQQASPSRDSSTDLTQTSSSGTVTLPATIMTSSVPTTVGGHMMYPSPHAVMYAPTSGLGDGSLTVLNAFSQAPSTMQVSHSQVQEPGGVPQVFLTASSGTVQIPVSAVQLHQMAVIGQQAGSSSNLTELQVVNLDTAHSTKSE
T1 sequence 2: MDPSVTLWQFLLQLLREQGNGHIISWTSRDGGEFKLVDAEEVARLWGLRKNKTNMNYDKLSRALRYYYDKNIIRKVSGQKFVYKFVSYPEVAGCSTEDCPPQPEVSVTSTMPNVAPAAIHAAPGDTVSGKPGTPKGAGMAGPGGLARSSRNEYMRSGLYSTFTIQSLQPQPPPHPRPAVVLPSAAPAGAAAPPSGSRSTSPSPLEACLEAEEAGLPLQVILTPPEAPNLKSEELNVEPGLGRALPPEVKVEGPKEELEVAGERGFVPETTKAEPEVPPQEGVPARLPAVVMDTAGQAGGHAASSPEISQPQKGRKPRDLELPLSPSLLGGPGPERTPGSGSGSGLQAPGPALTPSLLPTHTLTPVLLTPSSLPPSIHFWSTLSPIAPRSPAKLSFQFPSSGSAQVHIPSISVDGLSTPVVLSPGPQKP

SRF (His-SRF) = molecular target: T2, SRF (His-SRF) (human, UniProt P11831 1-508)
T2 sequence: T1 sequence 1

IPMK, sequence (Q8NFU5 whole entry): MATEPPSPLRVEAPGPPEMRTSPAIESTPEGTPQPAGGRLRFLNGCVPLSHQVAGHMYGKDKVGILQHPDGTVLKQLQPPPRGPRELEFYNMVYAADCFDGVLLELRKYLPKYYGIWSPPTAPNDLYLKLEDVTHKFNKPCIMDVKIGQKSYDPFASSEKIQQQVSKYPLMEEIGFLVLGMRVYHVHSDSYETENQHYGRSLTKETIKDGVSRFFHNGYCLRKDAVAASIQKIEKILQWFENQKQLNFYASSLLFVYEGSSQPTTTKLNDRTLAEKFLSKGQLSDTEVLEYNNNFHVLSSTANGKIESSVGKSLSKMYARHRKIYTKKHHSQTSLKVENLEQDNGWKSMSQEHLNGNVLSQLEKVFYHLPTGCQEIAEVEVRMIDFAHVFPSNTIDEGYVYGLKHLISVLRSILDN

B1: c-fos SRE EMSA probe (dsDNA)
DNA 1: CTAAGCTTGCTGACGCAGATGTCCTAATATGGACATCCTGTCCCGGGGA
DNA 2: TCCCCGGGACAGGATGTCCATATTAGGACATCTGCGTCAGCAAGCTTAG
IPMK
  binding result: no binding
[1]
  binding result: binds
SRF (His-SRF)
  binding result: binds
